T1: human B7-H7 on the cell surface (human, UniProt Q9UM44 23-414)
T1 construct: whole, on cells; also called hB7-H7; hu B7-H7
T1 sequence (looked up): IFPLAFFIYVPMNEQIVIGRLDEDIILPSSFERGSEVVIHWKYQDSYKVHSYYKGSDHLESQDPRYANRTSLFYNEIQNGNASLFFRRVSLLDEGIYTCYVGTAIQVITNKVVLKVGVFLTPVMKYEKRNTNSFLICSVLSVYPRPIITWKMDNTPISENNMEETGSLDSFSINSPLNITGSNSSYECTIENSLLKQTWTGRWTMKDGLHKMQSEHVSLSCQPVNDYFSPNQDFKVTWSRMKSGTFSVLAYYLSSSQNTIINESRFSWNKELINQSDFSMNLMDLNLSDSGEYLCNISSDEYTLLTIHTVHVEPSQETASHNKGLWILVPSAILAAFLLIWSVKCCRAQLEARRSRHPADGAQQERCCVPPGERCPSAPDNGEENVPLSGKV

T2: biotinylated human B7-H7 protein (Acro Biosystems, B77-H82F5) (human, UniProt Q9UM44 23-344, biotinylated)
T2 construct: Bought soluble protein; also called biotin-B7H7 protein
T2 sequence (looked up): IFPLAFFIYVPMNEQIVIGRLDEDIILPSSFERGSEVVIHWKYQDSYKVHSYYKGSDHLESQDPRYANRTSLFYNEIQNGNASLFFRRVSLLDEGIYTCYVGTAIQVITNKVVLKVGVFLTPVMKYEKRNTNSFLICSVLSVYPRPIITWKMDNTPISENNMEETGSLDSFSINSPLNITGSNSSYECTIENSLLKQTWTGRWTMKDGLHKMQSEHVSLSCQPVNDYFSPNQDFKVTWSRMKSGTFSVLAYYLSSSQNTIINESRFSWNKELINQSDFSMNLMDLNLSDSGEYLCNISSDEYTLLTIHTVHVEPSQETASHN

T3: human B7-H7 recombinant protein (human, UniProt Q9UM44 23-344)
T3 construct: also called human B7-H7 protein
T3 sequence (looked up): T2 sequence (looked up)

B1: Biotin-B7H4 protein (Acro Biosystems, B74-H82E2) (ligand, UniProt Q7Z7D3 29-258, looked up)
chain: FGISGRHSITVTTVASAGNIGEDGILSCTFEPDIKLSDIVIQWLKEGVLGLVHEFKEGKDELSEQDEMFRGRTAVFADQVIVGNASLRLKNVQLTDAGTYKCYIITSKGKGNANLEYKTGAFSMPEVNVDYNASSETLRCEAPRWFPQPTVVWASQVDQGANFSEVSNTSFELNSENVTMKVVSVLYNVTINNTYSCMIENDIAKATGDIKVTESEIKRRSHLQLLNSKA
modifications: biotinylated
notes: also called negative control protein
B2: PR003181 (antibody, human IgG4 S228P, kappa)
heavy: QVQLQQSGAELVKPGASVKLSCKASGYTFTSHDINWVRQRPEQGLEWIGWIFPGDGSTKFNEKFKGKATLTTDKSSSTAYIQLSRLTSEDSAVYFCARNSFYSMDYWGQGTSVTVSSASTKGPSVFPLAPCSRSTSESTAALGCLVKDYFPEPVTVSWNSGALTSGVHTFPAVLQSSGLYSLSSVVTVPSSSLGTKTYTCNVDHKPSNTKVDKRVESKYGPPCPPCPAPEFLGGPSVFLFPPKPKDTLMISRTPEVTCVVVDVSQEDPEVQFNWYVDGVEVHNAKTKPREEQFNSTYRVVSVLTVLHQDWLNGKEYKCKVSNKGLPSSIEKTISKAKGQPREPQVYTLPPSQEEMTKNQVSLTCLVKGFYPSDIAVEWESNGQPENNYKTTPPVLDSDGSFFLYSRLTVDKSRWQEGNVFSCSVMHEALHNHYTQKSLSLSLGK
light: DIVMSQSPSSLAVSAGEKVTMSCKSSQSLLNSRTRKNQLAWYQQKPGQSPKLLIYWASTRESGVPDRFTGSGSGTDFTLTISSVQAEDLAVYYCKQSYNLRTFGGGTKLEIKRTVAAPSVFIFPPSDEQLKSGTASVVCLLNNFYPREAKVQWKVDNALQSGNSQESVTEQDSKDSTYSLSSTLTLSKADYEKHKVYACEVTHQGLSSPVTKSFNRGEC
notes: also called Control antibody 1; positive control

Columns and labels:
[1] = molecular target: T4, Human KIR3DL3 protein (Sino Biological, 16055-H08H) (human, UniProt Q8N743 26-322); assay: ELISA, coated KIR3DL3, biotinylated protein detected with StrepTactin-HRP
T4 construct: Coated on the ELISA plate
Description: After the liquid was discarded, the plate was washed 3 times with a PBS buffer, 200 μl of PBS blocking solution containing 1% BSA was added, and the plate was incubated for 1 hour at room temperature. The blocking solution was discarded, and the plate was washed 3 times with a PBS buffer. […] The antibodies to be tested were subjected to 3-fold concentration dilution from 100 nM, with a total of 8 gradient concentrations. 100 μl of the diluted antibody was added to each well, and the plate was incubated at 4° C. overnight.

[2] = molecular target: T1, human B7-H7 on the cell surface; assay: flow cytometry, HCC827 cells
Description: This example was intended to study the in vitro activity of H2L2 monoclonal antibodies against human B7-H7 in binding to human/cynomolgus monkey B7-H7. Since homologous molecules of B7-H7 were not present in mice, the detection was not performed. […] The cells were adjusted to a cell density of 1×10⁶ cells/mL, respectively. The cells were seeded in a 96-well V-bottom plate (Corning, #3894) at 100 μL/well, and the antibody to be tested at 2× final concentration with 3-fold concentration gradient dilution was then added at 100 μL/well. The cells were incubated at 4° C. for 2 hours in the dark. After the incubation, the cells were rinsed twice by adding pre-chilled PBS containing 2% BSA at 100 μl/well, and centrifuged at 500 g at 4° C. for 5 minutes, and the supernatant was discarded. […] The cells were washed twice by adding pre-chilled PBS containing 2% BSA at 100 μL/well, and centrifuged at 500 g at 4° C. for 5 minutes, and the supernatant was discarded. Finally, the cells were resuspended in pre-chilled PBS containing 2% BSA at 200 μL/well, and the fluorescence signal values were read using an ACEA Novocyte3000 flow cytometer.

[3] = molecular target: T2, biotinylated human B7-H7 protein (Acro …); assay: flow cytometry, blocking of biotinylated human B7-H7 binding to CHO-K1/KIR3DL3 cells
Text: (§1) This example was intended to study the in vitro blocking activity of human anti-B7-H7 antibodies against the binding of human B7-H7 to its receptor KIR3DL3. A CHO-K1 cell (CHO-K1/KIR3DL3, Harbour BioMed US, Inc.) overexpressing human KIR3DL3 was used in experiments at the cellular level where human B7-H7/human KIR3DL3 binding was blocked. Briefly, the CHO-K1/KIR3DL3 cells were digested and resuspended in PBS containing 2% BSA. The cells were adjusted to a cell density of 1×10⁶ cells/mL. […] The cells were incubated at 4° C. for 1 hour in the dark. […] The cells were rinsed twice by adding pre-chilled PBS containing 2% BSA at 100 μL/well, and were centrifuged at 500 g at 4° C. for 5 minutes, and the supernatant was discarded. A fluorescent secondary antibody (PE Streptavidin, BD, Cat #: 554061, 1:200) was added at 100 μL/well, and the cells were incubated at 4° C. for 30 minutes in the dark. The cells were washed twice by adding pre-chilled PBS at 200 µL/well, and centrifuged at 500 g at 4° C. for 5 minutes, and the supernatant was discarded. Finally, the cells were resuspended in pre-chilled PBS at 200 μL/well, and the fluorescence signal values were read using an ACEA Novocyte3000 flow cytometer. IC50 was calculated.

[4] = molecular target: T2, biotinylated human B7-H7 protein (Acro …); assay: BLI epitope competition on SA-captured biotinylated B7-H7; competitor (first antibody) PR003249
Description: (§2) Epitope competition experiments were performed on the anti-B7-H7 antibodies using the ForteBio Octet Red96e platform with the same experimental buffer as described above. […] After being equilibrated in a buffer for 120 s, the sensors were immersed in various antibodies diluted to 100 nM for 240 s, and the final signal of the antibody binding to B7-H7 was recorded as the 100% signal for that antibody. Second step, epitope competition experiment: B7-H7 was captured using SA sensors at a capture height of 0.25 nm. The sensors were immersed in a first antibody (concentration: 100 nM) for 240 s, then the SA sensors were immersed in a mixture of the first antibody and a second antibody (final concentration of both antibodies: 100 nM) for 240 s, and the difference in signals before and after immersing the sensors in the mixture of the two antibodies was recorded as the signal for that antibody as the second antibody. The inhibition rate was calculated by the following equation, […]

[5] = molecular target: T2, biotinylated human B7-H7 protein (Acro …); assay: flow cytometry, blocking of biotinylated human B7-H7 binding to HEK-293/CD28H cells
Description: as §1, with “CD28H. […]” for “KIR3DL3. A CHO-K1 cell (CHO-K1/KIR3DL3, Harbour BioMed US, Inc.) overexpressing human KIR3DL3 was used in experiments at the cellular level where human B7-H7/human KIR3DL3 binding was blocked. Briefly, the CHO-K1/KIR3DL3 cells were digested and resuspended in PBS containing 2% BSA.”, “μL/well,” for “µL/well,”

[6] = molecular target: T2, biotinylated human B7-H7 protein (Acro …); assay: BLI epitope competition on SA-captured biotinylated B7-H7; competitor (first antibody) PR003251
Description: as §2

[7] = molecular target: T3, human B7-H7 recombinant protein; assay: BLI (Octet), antibody captured on AHC sensor, human B7-H7 in solution, 1:1 global fit
Description: The binding kinetics between antigen and antibody was analyzed using an Octet Red 96e (Fortebio) molecular interaction analyzer by biolayer interferometry (BLI) technology.
For determining the affinity of antibodies for antigens, the rotary speed of the sensor was set at 1000 rpm. AHC sensors (Fortebio, #18-5060) placed in one column were first equilibrated in a test buffer for 10 minutes, and then used to capture the anti-B7-H7 antibodies at a capture height of 0.7 nm; and after being equilibrated in the buffer for 120 s, the AHC sensors bound to human B7-H7 (concentrations: 50-3.125 nM and 0 nM) with 2-fold gradient dilution for 180 s and dissociated for 300 s. The AHC sensors were finally regenerated by immersing in a 10 mM glycine-hydrochloric acid solution with pH 1.5 to elute the protein bound to the sensors.
For data analysis using Octet Data Analysis software (Fortebio, version 11.0), 0 nM well was used as the reference well, reference subtraction was performed, “1:1 Global fitting” method was selected for data fitting, the kinetic parameters of the binding of the antigen to the antigen-binding protein were calculated, and the kₒₙ (1/Ms) value, kdis (1/s) value and KD (M) value were obtained.

T4 sequence (Q8N743 26-322 limits assumed): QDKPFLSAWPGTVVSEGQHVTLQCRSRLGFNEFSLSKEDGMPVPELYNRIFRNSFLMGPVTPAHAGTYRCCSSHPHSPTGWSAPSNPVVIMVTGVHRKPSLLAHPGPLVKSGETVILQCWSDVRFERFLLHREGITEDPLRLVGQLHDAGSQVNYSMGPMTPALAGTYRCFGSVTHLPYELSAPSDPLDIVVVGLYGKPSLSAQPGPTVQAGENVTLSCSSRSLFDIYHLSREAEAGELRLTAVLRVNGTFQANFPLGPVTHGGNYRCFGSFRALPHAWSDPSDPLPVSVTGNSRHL

Binder | binding result [1] | EC50 [2] | Maximum MFI [2] | IC50 [3] | Maximum inhibition rate (%) [3] | Competitive inhibition rate (%) [4] | IC50 [5] | Competitive inhibition rate (%) [6] | Kd [7] | koff [7] | kon [7]
B1 | no binding (tested: 6 µg/ml) |  |  |  |  |  |  |  |  |  | 
B2 |  | 2.55 nM | 25100 MFI | 10.4 nM | 96.7% | 77% | 71.7 nM | 5.32% | 26.3 nM | 0.00205 s⁻¹ | 78100 M⁻¹ s⁻¹
